± gives the uncertainty stated by the source.

The nature of this data set: amyloid nucleation score (Sup35N fusion, yeast selection) (log enrichment); library NNK2; higher = more nucleation; inactive = no reads after selection. The method, boiled down:
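The nucleation score is the log enrichment of output over input reads, calculated with DiMSum and centred on the mode score of non-aggregating sequences. Sequences with under 100 input reads were excluded. Reads came from Illumina sequencing of plasmid inserts from psi-negative yeast expressing Sup35N fused to peptides of 20 random codons, induced 24 hours with 100 μM copper sulfate and grown 7 days at 30°C without adenine and uracil.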

In the case of YLYLRKASEFLKGRWWVKYK, the amyloid nucleation score result was “inactive”.

In turn, LFYAAEYKLCMEV gave an amyloid nucleation score of -0.857 ± 0.41.

SSMSLWFMHYRNSKSCL showed an amyloid nucleation score of -0.721 ± 0.33.

Consider ALINHWNLVTFS, for which the amyloid nucleation score entry was “inactive”.

On to GSSRLCRQYAVNFFDCHMYD, for which the amyloid nucleation score was 4.78 ± 0.056.

GNTLGRFMVLHT returned an amyloid nucleation score of -0.199 ± 0.8.

HNYIWARTRSRGRPMYSVPA registered an amyloid nucleation score of 0.798 ± 0.33.

The substance YEGNFAHCFSLGPDHVID showed an amyloid nucleation score of -0.202 ± 1.1.

On to NDKTYLPGRHSYGSCYVIVW, for which the amyloid nucleation score turned out to be 0.561 ± 0.64.

Consider REDRNATLCIVV, for which the amyloid nucleation score was 2.67 ± 0.13.

As to FYFLLG, the amyloid nucleation score came to 0.587 ± 0.32.

KVECEVWVRWVRCDGCAAGK gave an amyloid nucleation score of 1.22 ± 0.2.

The substance YTFKYLSRMYLHYSVKGMWL gave an amyloid nucleation score of 0.325 ± 0.8.

SSLTANGNNSMT displayed an amyloid nucleation score of -0.173 ± 0.63.

In the case of DRVFLFFKKRPGPWMMARLY, the amyloid nucleation score result was “inactive”.

In turn, NGRETEFQFTRVDVWNFSVM yielded an amyloid nucleation score of 5.065 ± 0.046.

With HGTATCVAILMNRL, the amyloid nucleation score was 6.35 ± 0.077.

As for IVIPSSK, the amyloid nucleation score result was “inactive”.

Turning to PFSWH, the amyloid nucleation score came to 1.38 ± 0.14.

Substance RTDRLCARHLGLFDDTVPET displayed an amyloid nucleation score of 0.664 ± 0.21.

In turn, IEVFDIWCPAGFVMEALRFV came in with an amyloid nucleation score of 4.28 ± 0.099.

Regarding LLNLTSLLRKCLFKNRRKFI, the amyloid nucleation score was -0.972 ± 0.36.

For VMQVVLGNMLMRRSQVLYNW, the amyloid nucleation score was -0.62 ± 0.41.

Substance LCQNKTMTIGRFKIGHKWYP came in with an amyloid nucleation score of 0.004 ± 1.1.

For IAIRFIDDYCGFRGV, the amyloid nucleation score amounted to 0.288 ± 0.8.

The substance AWDEINYD had an amyloid nucleation score of 0.292 ± 0.56.

In turn, MDIFRYVCNCYKSSNKKVFG displayed an amyloid nucleation score of -1.25 ± 0.78.

The substance TFLWLLLY returned an amyloid nucleation score of 6.754 ± 0.034.

For the substance RFFGTTFYTAMMTRGFETVT, the amyloid nucleation score is -0.139 ± 0.28.

Regarding IKDMTKVIATGFCLCITLVC, the amyloid nucleation score came out at 0.592 ± 0.66.

As for WTTYLGSFKWRNRVKWWPAP, the amyloid nucleation score turned out to be 1.88 ± 0.18.

Substance WLRLPICDLQLLNWADLRFV displayed an amyloid nucleation score of 0.236 ± 1.1.

Turning to NSREALVKVGNECP, the amyloid nucleation score entry was “inactive”.

On to SHFVCMWFYYISTWKCS, for which the amyloid nucleation score is -0.766 ± 0.48.

The substance YGGKSHPLIWFACIWSYIVN had an amyloid nucleation score of 3.04 ± 0.07.

LRKHFWLGCEGAWLVFG: the amyloid nucleation score came out at 4.81 ± 0.08.

In turn, RLMCVLMGYRGSSGVDCRSA gave an amyloid nucleation score of 0.185 ± 0.27.

With IGMSHRSQACESFKVKCPTY, the amyloid nucleation score was determined as 1.66 ± 0.2.

MFEIIPFPTSISDRGSTIYM: the amyloid nucleation score is -0.855 ± 0.55.

In turn, SRLLIREYNLVSNDKFIYFV showed an amyloid nucleation score of 3.01 ± 0.073.

VMSNFFVLRNGCWPMGRG had an amyloid nucleation score of 6.124 ± 0.049.

Substance LNVGIFNLLTSSGFMGTIRR registered an amyloid nucleation score of 4.39 ± 0.045.

Consider YGQKVMPESMKQSFNFMTEI, for which the amyloid nucleation score was -0.573 ± 0.63.

CGLYWFMVFTF had an amyloid nucleation score of 0.147 ± 0.76.

With FYCIARERLRMVNFT, the amyloid nucleation score is -0.845 ± 0.62.

YWVFMNSRLVAIGPANALVV came in with an amyloid nucleation score of -0.69 ± 1.1.

HACSMSIFEFRMCKKWSLLV yielded an amyloid nucleation score of -0.848 ± 0.38.

NWGWFVSLFYGVAAGDHSRT had an amyloid nucleation score of 0.955 ± 0.37.

TERLICMRTSMPSFIYVFWD yielded an amyloid nucleation score of -0.847 ± 0.54.

Consider FAFICTR, for which the amyloid nucleation score entry is “inactive”.

VSTWTYSHRAPRG displayed an amyloid nucleation score of 1.52 ± 0.26.

Consider RVLRSETYDSFSL, for which the amyloid nucleation score is -0.163 ± 0.32.

On to SVDSLWQYQSFRALFPCFMS, for which the amyloid nucleation score result was “inactive”.

With VLRIRLQAGEGKRCE, the amyloid nucleation score worked out at 4.878 ± 0.044.

Consider FAHERHTIYRQVSIMMWRSM, for which the amyloid nucleation score was 0.426 ± 0.25.

Take MFGGPTFNMRWFFTFFSRGR: the amyloid nucleation score amounted to 4.46 ± 0.046.

In the case of THLLIIDIVKYRKHIL, the amyloid nucleation score was determined as 0.255 ± 1.1.

As to NNSHPRNKLSWIVRLCVKLI, the amyloid nucleation score entry was “inactive”.

SIANLPFISLL yielded an amyloid nucleation score of -1.62 ± 0.54.

With LIRPSLPSS, the amyloid nucleation score was found to be 0.807 ± 0.28.

Turning to WNKYLCFKFRFYLPFVNYWL, the amyloid nucleation score result is “inactive”.

For EWLTLTDIFT, the amyloid nucleation score is -0.619 ± 1.

Consider PGEECGGLSITIEWGTSSS, for which the amyloid nucleation score amounted to 0.211 ± 0.5.

Regarding DRQCK, the amyloid nucleation score was 0.445 ± 0.32.

LHSRFL showed an amyloid nucleation score of 0.236 ± 1.1.

As to PAMSVHGNSAESTYVIMHYF, the amyloid nucleation score was -0.494 ± 0.54.

The substance LCFMF showed an amyloid nucleation score of 0.4 ± 0.51.

Consider TDDMCYSEMYIRCVRLFEIV, for which the amyloid nucleation score was found to be 2.34 ± 0.11.

Take VTSLDFKFNVGEY: the amyloid nucleation score came out at 0.832 ± 0.67.

On to WLFIVFSTLS, for which the amyloid nucleation score is -0.19 ± 1.

TRCGMEAYMSLDMGLYERPM had an amyloid nucleation score of -0.762 ± 0.41.

The substance FCWRYNSKIRLKHGQDSGPR showed an amyloid nucleation score of -0.343 ± 0.33.

WSNSYHRLILWRQCIFGLLV yielded an amyloid nucleation score of 2.76 ± 0.081.

WDGLASLQVSCVAMLLVQSF displayed an amyloid nucleation score of -0.546 ± 0.39.

PARTYILYNPDAGMSLKWSS returned an amyloid nucleation score of -1.06 ± 1.1.

In turn, LHTLVALINACRNASGSVHD had an amyloid nucleation score of 0.167 ± 0.65.

With GSSTMWNVLVAWLRTIL, the amyloid nucleation score result was “inactive”.

FCNNWDFF yielded an amyloid nucleation score of 2.41 ± 0.14.

The substance SGPRLTYSTLSKICALVQAE registered an amyloid nucleation score of 0.457 ± 0.34.

DPPSSFEFMCLRLWV displayed an amyloid nucleation score of 3.35 ± 0.085.

GVSWTFFGEYFQPCSSMKVN displayed an amyloid nucleation score of -0.538 ± 0.46.

LGIKRNQI yielded an amyloid nucleation score of -0.812 ± 0.45.

RLRVY came in with an amyloid nucleation score of -0.781 ± 0.35.

For DYLKLLAYNVLFR, the amyloid nucleation score result is “inactive”.

Take SPLHRDCGNQLTE: the amyloid nucleation score is 0.814 ± 0.17.

RRDFWPSVSLGCDFRIRFPR showed an amyloid nucleation score of 2.1 ± 0.12.

PQHFGEPTLIMVGKGLGCLR showed an amyloid nucleation score of 0.178 ± 0.77.

Turning to TWESSV, the amyloid nucleation score stood at 0.613 ± 0.2.

HYITKFSYDLGRKAKALVLS: the amyloid nucleation score is -0.626 ± 0.54.

Consider IAHCCFGQF, for which the amyloid nucleation score came to 7.634 ± 0.074.

LVSKSERER displayed an amyloid nucleation score of 5.451 ± 0.053.

VGALCGYAVVSWYSWSLSVL yielded an amyloid nucleation score of 1.83 ± 0.11.

As to FFYFTMWNKHFEFVYNSSPC, the amyloid nucleation score is -0.613 ± 0.64.

Substance LCHLVFVVSDWRQRLRVFTV registered an amyloid nucleation score of 4.37 ± 0.05.

With TIKLYRNMWEQLVQTEPSRT, the amyloid nucleation score was found to be 0.045 ± 0.79.

In the case of ILTWVAHILLP, the amyloid nucleation score stood at 3.72 ± 0.072.

The substance TEDVDL displayed an amyloid nucleation score of 1.5 ± 0.2.

Substance LYYAVQFLKIRTLLPECSLQ came in with an amyloid nucleation score of 0.16 ± 0.43.

Turning to PGLRGGA, the amyloid nucleation score was -0.398 ± 0.76.

As to TCCKLEDSYSWSALKLTSLA, the amyloid nucleation score came to 1.27 ± 0.35.

KYCCWLRCGLIYNWGGNQDV: the amyloid nucleation score came to 5.14 ± 0.064.

Substance CFFFISAVGPEILIVGFLGV returned an amyloid nucleation score of -0.684 ± 1.

The substance TISWFLETYVRSLFPRVGRG gave an amyloid nucleation score of -0.035 ± 0.33.

For the substance WNGYNGRDMCGKLCGVCTLG, the amyloid nucleation score was 0.219 ± 0.43.

RRRIRVCGSWFSGYN showed an amyloid nucleation score of -0.527 ± 0.5.

The substance NPFYYTGLTIPCFVYHRIKS came in with an amyloid nucleation score of -0.508 ± 0.31.

On to VGIRRYVRFKVLHNRVNVHE, for which the amyloid nucleation score result was “inactive”.

Substance ILLVYTLHRCLSSRVNEYQM returned an amyloid nucleation score of 4.22 ± 0.052.

For the substance LFRCELSLGRHMGFLDWEWG, the amyloid nucleation score was found to be 0.201 ± 0.38.

Substance GPYFVNYPLKTNSIVLWELA had an amyloid nucleation score of 0.356 ± 0.8.

The substance LIVWT returned an amyloid nucleation score of 0.593 ± 0.54.

As for YHGFSQDCLNV, the amyloid nucleation score is -0.042 ± 0.55.

On to SLFCVYYNDSSLLSYSVWQI, for which the amyloid nucleation score came out at 5.75 ± 0.06.

In the case of NLDVSYYVIYIKPGRYPV, the amyloid nucleation score was 6.09 ± 0.078.

GIRVLRTRYSLELCMRCLLW had an amyloid nucleation score of 0.126 ± 0.26.

The substance GNCPLMPMKFRNRMSHSAFS came in with an amyloid nucleation score of 0.517 ± 0.4.

MAESELQICMFYTMGCWDMV displayed an amyloid nucleation score of -0.165 ± 0.42.

The substance TYATNSRRNRNVYLRPHCQI had an amyloid nucleation score of 0.117 ± 0.3.

Substance MANVADMIVDGLM came in with an amyloid nucleation score of 0.525 ± 0.49.

As to FNDSPSYWFSHYIAARSSVE, the amyloid nucleation score is -0.37 ± 0.36.

Substance TLRVS yielded an amyloid nucleation score of -0.207 ± 0.36.

TVIRNLVICSFEYCRDMITR gave an amyloid nucleation score of 8.195 ± 0.075.

Turning to TNSRRCSYSLTPPSGTNRCQ, the amyloid nucleation score is -0.053 ± 0.54.

As for GNGLFSVFYIFYAAGKRSVC, the amyloid nucleation score was 0.394 ± 0.62.

THYTDIIFFQEGLY: the amyloid nucleation score entry is “inactive”.

As to RLKLMQFLHLAPIVPAILCC, the amyloid nucleation score turned out to be 0.444 ± 0.35.

Substance FICALTMYICSLY returned an amyloid nucleation score of 7.389 ± 0.027.

On to SRVSLHNES, for which the amyloid nucleation score was -0.453 ± 1.1.

As to GYYCDYSNTSRATRNMASKR, the amyloid nucleation score was -0.719 ± 0.32.

The substance PIARN returned an amyloid nucleation score of -0.47 ± 1.

Turning to WSGQPGFSTYGICLLSVRLK, the amyloid nucleation score was -0.286 ± 0.65.

IYLQGAGLL: the amyloid nucleation score entry is “inactive”.

In turn, GPVLGEFVEGSGNANGDEQV returned an amyloid nucleation score of -0.107 ± 1.

In turn, GRMNTLDTFLTMAISDDASF had an amyloid nucleation score of -0.147 ± 0.46.

For the substance IGTGLDADTSM, the amyloid nucleation score amounted to 1.44 ± 0.16.

Take LMVTKLSCSCFCLFSVPRSQ: the amyloid nucleation score was 0.783 ± 0.74.

In turn, FTLDNMSLQTRTLMRYE gave an amyloid nucleation score of -0.863 ± 0.49.

As to KLLPEWSWKG, the amyloid nucleation score was found to be 0.428 ± 0.39.

As for YDNKASDVMVNYLRHICVYS, the amyloid nucleation score entry was “inactive”.

PGSKPPWVSYGNPSTMAIGM returned an amyloid nucleation score of -0.472 ± 0.79.

The record behind these values is the supplement of paper PMC12042874.
